From article PMC11971276 (Nature Communications, 2025)

B1: pamrevlumab (antibody, V domains shown)
VH: EGQLVQSGGGLVHPGGSLRLSCAGSGFTFSSYGMHWVRQAPGKGLEWVSGIGTGGGTYSTDSVKGRFTISRDNAKNSLYLQMNSLRAEDMAVYYCARGDYYGSGSFFDCWGQGTLVTVSS
VL: DIQMTQSPSSLSASVGDRVTITCRASQGISSWLAWYQQKPEKAPKSLIYAASSLQSGVPSRFSGSGSGTDFTLTISSLQPEDFATYYCQQYNSYPPTFGQGTKLEIK

What was measured:
recombinant CCN2 = recombinant CCN2 (UniProt P29279); assay: ELISA
[1] = molecular target: biotinylated human CCN2 (human) (UniProt P29279); assay: competition electrochemiluminescence assay
biotinylated human CCN2 (human), sequence (P29279 27-349): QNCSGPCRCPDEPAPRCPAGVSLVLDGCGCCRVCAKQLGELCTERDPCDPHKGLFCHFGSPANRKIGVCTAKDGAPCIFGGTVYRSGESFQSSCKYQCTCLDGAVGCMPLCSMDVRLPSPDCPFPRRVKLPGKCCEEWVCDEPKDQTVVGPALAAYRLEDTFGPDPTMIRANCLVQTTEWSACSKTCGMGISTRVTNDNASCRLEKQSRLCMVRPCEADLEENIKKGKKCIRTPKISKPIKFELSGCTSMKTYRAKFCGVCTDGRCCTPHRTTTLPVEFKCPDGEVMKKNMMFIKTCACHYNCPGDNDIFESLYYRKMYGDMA

[2] = molecular target: human CCN2 (R&D Systems) (human) (UniProt P29279); assay: electrochemiluminescence assay
human CCN2 (R&D Systems) (human), sequence (P29279 27-349): as above

[3] = molecular target: Human CCN2 tagged with human Fc (human) (UniProt P29279); assay: SPR
Human CCN2 tagged with human Fc (human), sequence (P29279 27-349): as above

biotinylated human CCN2 = biotinylated human CCN2 (Homo sapiens, UniProt P29279, biotin (sites not given)); assay: competition electrochemiluminescence assay
biotinylated human CCN2, sequence (P29279 27-349): as above

recombinant CCN2, sequence (P29279 27-349): as above

Molecule | EC50 (recombinant CCN2) [nM] | IC50 [1] [nM] | relative potency [%], post-nebulization [2] [%] | Kd [3] [nM] | fold higher affinity than pamrevlumab [3] [fold] | fold slower dissociation than pamrevlumab [3] [fold] | IC50 (biotinylated human CCN2) [nM]
PRS-220 (designed binder) | 0.39 | 0.35 | 100 | 0.06 | 364 | 169 | 
B1 |  |  |  |  |  |  | 1.14
